B1: CD86 cytosolic tail peptide (20-mer) (peptide)
peptide: LWKWKKKKRPRNSYKCGTNT
B2: CD80 cytosolic tail peptide (20-mer) (peptide)
peptide: PRCRERRRNERLRRESVRPV

Experiments:
[1] = target: CD86 cytosolic tail peptide (20-mer); experiment: ELISA
[2] = target: CD80 cytosolic tail peptide (20-mer); experiment: ELISA
[3] = target: rF2-Nef protein (HIV-1 Subtype C), full length wild type (HIV-1 subtype C (F2 isolate)); experiment: MST

Molecule | fold increase of ELISA signal over CD74 peptide or no-peptide wells [1] [fold] | fold increase of ELISA signal over CD74 peptide or no-peptide wells [2] [fold] | Kd [3] [µM]
rF2-Nef protein (HIV-1 Subtype C), full length wild type (natural protein) | 4 | 4 | –
B1 | – | – | 0.112
B2 | – | – | 27
